The assay addresses GST-DNMT1-N (UniProt P26358). Description: pull-down; GST-tagged proteins on Glutathione Sepharose beads incubated with acid-extracted core histones from HEK293T cells transfected with FLAG-H3 or FLAG-H2B and UHRF1 (S phase); 25 mM Tris-HCl pH 8.0, 150 mM NaCl, 1% NP-40, 2 mM EDTA, 1 mM DTT, 4 °C, 3 h; WB with anti-FLAG.

Turning to “ubiquitinated FLAG-H2B (from UniProt P0CG48 1-76)”, the fold enrichment of the ubiquitinated histone in the pull-down is 4.9 fold.

Regarding “ubiquitinated FLAG-H3 (from UniProt P0CG48 1-76)”, the fold enrichment of the ubiquitinated histone in the pull-down was determined as 20 fold.

Source of the values: publication PMC7445300.
